# Results: the supplement of paper PMC10126150
# ± gives the standard deviation of the averaged measurements.
# System: ATP
# Experiment: switch fluorescence ratio, 500 uM ATP over buffer (Cy3 cluster intensity, sum of 5 cycles each) (fold (ratio)); higher = stronger signal-on switching upon ATP binding; sequences stand for … in TCGTCGGCAGCGTCAGATGTGTATAAGAGACAGTTTTTTTTTTTTTTTTTTTTTTTTT…TC
# Conditions: aptamer strand: ATP DNA aptamer (quencher-CACCTGGGGGAGTATTGCGGAGGAAGG + anchor), 100 nM annealed; ATP concentration: 500 uM
# Procedure, shortened: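 Per cluster, summed Cy3 intensity from the target cycles was divided by that from the buffer cycles to give the fluorescence ratio, then averaged per switch-domain sequence. Clusters outside 100-1000 RFU were excluded. The Cy3-labelled switching-strand clusters, on a modified Illumina MiSeq flow-cell, were annealed to 100 nM quencher-labelled ATP aptamer and imaged in selection buffer, then after 15 min with 500 uM ATP at 22 °C, for five cycles with NaOH stripping and re-annealing between them.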
# 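Also: ATP exposure 15 min at 22 °C before imaging.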
row,Sequence,switch fluorescence ratio
1,GGATAGGGTA,0.974 ± 0.043
2,GGATAGGTTT,1.01 ± 0.034
3,GGATAGTGTG,0.997 ± 0.014
4,GGATATAAAT,0.972 ± 0.0099
5,GGATATCAAG,1.01 ± 0.016
6,GGATATGTGG,0.99 ± 0.025
7,GGATATTCCA,1.01 ± 0.067
8,GGATCAAAAG,1.01 ± 0.018
9,GGATCATGGT,1.034 ± 0.007
10,GGATCTAGAA,0.9644 ± 0.008
11,GGATCTGGTG,1.022 ± 0.0079
12,GGATGAAACT,1.012 ± 0.0044
13,GGATGAGCGA,1.18 ± 0.19
14,GGATGAGTTA,0.983 ± 0.015
15,GGATGATGCC,0.986 ± 0.033
16,GGATGCAGAT,0.997 ± 0.0094
17,GGATGCAGGA,1.04 ± 0.042
18,GGATGCCAGT,0.998 ± 0.013
19,GGATGCTAGA,0.996 ± 0.024
20,GGATGCTGGG,1 ± 0.015
21,GGATGCTTGT,1.009 ± 0.0092
22,GGATGGGCAA,1.026 ± 0.0026
23,GGATGGGGAG,0.971 ± 0.02
24,GGATGGGTAA,1.01 ± 0.039
25,GGATGGGTTT,1 ± 0.016

row,Sequence,switch fluorescence ratio
1,GGATGGTAGC,1.01 ± 0.013
2,GGATGGTGAG,0.972 ± 0.011
3,GGATGGTGTG,0.977 ± 0.037
4,GGATGTATAA,1.01 ± 0.028
5,GGATGTGAAA,0.9851 ± 0.0046
6,GGATGTTTCG,1.02 ± 0.02
7,GGATTAAAAT,0.997 ± 0.028
8,GGATTAAATC,1.001 ± 0.0086
9,GGATTAATCA,1.01 ± 0.035
10,GGATTAATGT,0.971 ± 0.022
11,GGATTAATTG,0.996 ± 0.037
12,GGATTACCCA,1.04 ± 0.021
13,GGATTACCCT,1.04 ± 0.015
14,GGATTACGTA,1.04 ± 0.059
15,GGATTAGCAG,1.034 ± 0.0075
16,GGATTAGGCG,0.981 ± 0.018
17,GGATTAGTGC,1.06 ± 0.039
18,GGATTATGTA,0.999 ± 0.026
19,GGATTATTG,0.98 ± 0.032
20,GGATTATTTG,0.97982 ± 7.7e-05
21,GGATTCGATT,0.987 ± 0.03
22,GGATTCTTGG,0.977 ± 0.024
23,GGATTGCGG,1.008 ± 0.01
24,GGATTGGACT,1 ± 0.019
25,GGATTGGGTT,1.04 ± 0.069

row,Sequence,switch fluorescence ratio
1,GGATTGTTTT,0.996 ± 0.023
2,GGATTTATTT,1.06 ± 0.026
3,GGATTTGATG,1 ± 0.031
4,GGATTTTCAC,1 ± 0.03
5,GGATTTTGGA,1 ± 0.018
6,GGATTTTGTG,0.994 ± 0.021
7,GGATTTTTTG,0.983 ± 0.021
8,GGCAAAAATT,1.01 ± 0.017
9,GGCAAAACAG,0.996 ± 0.032
10,GGCAAATTTT,1.02 ± 0.036
11,GGCAATATGG,1.229 ± 0.011
12,GGCAATCACC,1.402 ± 0.0063
13,GGCAATTATT,1.02 ± 0.026
14,GGCACCTACG,1.53 ± 0.14
15,GGCACGATGG,1 ± 0.035
16,GGCACTATAA,1.03 ± 0.023
17,GGCAGAATGA,1 ± 0.018
18,GGCAGACTTC,1.02 ± 0.041
19,GGCAGAGGCT,1.03 ± 0.031
20,GGCAGGGGAT,1.33 ± 0.6
21,GGCAGGGGGT,1.04 ± 0.088
22,GGCAGGGGTT,1 ± 0.023
23,GGCAGGGTTT,0.99 ± 0.037
24,GGCAGTAAGA,1.03 ± 0.024
25,GGCAGTCGTA,0.955 ± 0.081

row,Sequence,switch fluorescence ratio
1,GGCAGTGTAC,1.18 ± 0.12
2,GGCAGTGTGC,0.99 ± 0.022
3,GGCAGTTGCT,0.9882 ± 0.0056
4,GGCAGTTTTG,1.01 ± 0.0062
5,GGCATAACAC,1.093 ± 0.0088
6,GGCATACGTT,0.994 ± 0.026
7,GGCATCGTAA,1.01 ± 0.025
8,GGCATGTGGT,1.0254 ± 0.001
9,GGCATTCGAT,0.981 ± 0.03
10,GGCATTTCTA,1.04 ± 0.018
11,GGCATTTGGA,0.98 ± 0.035
12,GGCCAACCCG,1.0157 ± 0.00094
13,GGCCAAGGAA,0.9812 ± 0.0074
14,GGCCAAGGGG,1.04 ± 0.027
15,GGCCAGTTTG,0.986 ± 0.018
16,GGCCCATAGC,0.986 ± 0.018
17,GGCCCCGGGT,1.18 ± 0.057
18,GGCCCGTTAC,1.63 ± 0.2
19,GGCCCTAAGT,0.976 ± 0.026
20,GGCCCTTCGG,0.9987 ± 0.0091
21,GGCCGACAGC,1.03 ± 0.032
22,GGCCGATGCA,1.02 ± 0.021
23,GGCCGCGCTG,1.04 ± 0.016
24,GGCCGGAATT,1.17 ± 0.19
25,GGCCGGACAT,0.9674 ± 0.0089

row,Sequence,switch fluorescence ratio
1,GGCCGGGGCT,1.01 ± 0.026
2,GGCCGGGGTA,1 ± 0.046
3,GGCCGGGTTA,1.01 ± 0.042
4,GGCCGGTAAA,1 ± 0.051
5,GGCCGTGGGC,1 ± 0.043
6,GGCCGTTGGG,0.965 ± 0.016
7,GGCCTAGGGA,1.01 ± 0.056
8,GGCCTCTTTT,0.966 ± 0.039
9,GGCCTTTTGA,0.997 ± 0.015
10,GGCGAAATGG,1.06 ± 0.059
11,GGCGAAGGGT,0.98 ± 0.012
12,GGCGAAGTTC,0.99 ± 0.021
13,GGCGAGGGGC,1.01 ± 0.036
14,GGCGATGCGC,1.03 ± 0.018
15,GGCGATGTAT,0.967 ± 0.0097
16,GGCGCACGGG,1.02 ± 0.026
17,GGCGCATTAT,1.66 ± 0.061
18,GGCGGAGTGC,1.01 ± 0.027
19,GGCGGATCAG,0.9827 ± 0.0023
20,GGCGGATGGA,1.01 ± 0.037
21,GGCGGATGGG,1.02 ± 0.026
22,GGCGGCAAAA,1.07 ± 0.042
23,GGCGGGCATG,1.021 ± 0.0011
24,GGCGGGGGAA,1.01 ± 0.059
25,GGCGGGGGCG,1.07 ± 0.024

row,Sequence,switch fluorescence ratio
1,GGCGGGGTGG,1.09 ± 0.12
2,GGCGGGGTTG,0.996 ± 0.019
3,GGCGGGTAAT,1.04 ± 0.09
4,GGCGGGTGCG,0.984 ± 0.028
5,GGCGGTAAGA,1 ± 0.051
6,GGCGGTATAA,1.01 ± 0.025
7,GGCGGTATGG,1.01 ± 0.026
8,GGCGGTGGCA,1.01 ± 0.026
9,GGCGGTTTGT,1 ± 0.028
10,GGCGTAAAGT,1.02 ± 0.036
11,GGCGTCGAGG,0.997 ± 0.018
12,GGCGTGCCGA,1.011 ± 0.0053
13,GGCGTGTCGC,0.9852 ± 0.0037
14,GGCGTTGGGG,1 ± 0.023
15,GGCGTTTGGG,0.991 ± 0.033
16,GGCTAAAACT,1.01 ± 0.015
17,GGCTAATTGG,0.99 ± 0.026
18,GGCTACCTTG,1.047 ± 0.0038
19,GGCTAGGGGG,1.01 ± 0.022
20,GGCTATATTT,0.991 ± 0.017
21,GGCTATTAAA,1.01 ± 0.011
22,GGCTCAGGGG,1.16 ± 0.035
23,GGCTCATAGT,0.996 ± 0.017
24,GGCTCCAGCT,0.978 ± 0.028
25,GGCTCCGGGG,1.03 ± 0.024

row,Sequence,switch fluorescence ratio
1,GGCTCTAGGG,0.9921 ± 0.0036
2,GGCTCTTATT,1.009 ± 0.0057
3,GGCTGAATGG,0.988 ± 0.033
4,GGCTGATACG,1.04 ± 0.059
5,GGCTGGGAGG,0.99 ± 0.014
6,GGCTGGGATG,1.02 ± 0.095
7,GGCTGGGGCT,0.973 ± 0.026
8,GGCTGGGTAC,1.12 ± 0.24
9,GGCTGGTAGA,1 ± 0.02
10,GGCTGGTTTC,0.9969 ± 0.0089
11,GGCTGTCGGA,0.997 ± 0.0034
12,GGCTGTGGGT,0.987 ± 0.052
13,GGCTGTTAAG,0.983 ± 0.0028
14,GGCTGTTCGG,0.988 ± 0.036
15,GGCTGTTGGT,0.9655 ± 0.0072
16,GGCTTAGGCA,1.01 ± 0.04
17,GGCTTCGGGG,0.98028 ± 0.00081
18,GGCTTGGAGC,0.996 ± 0.025
19,GGCTTGGGAG,0.982 ± 0.019
20,GGCTTGGGCG,0.983 ± 0.061
21,GGCTTTACTA,1 ± 0.012
22,GGCTTTGAAG,0.9951 ± 0.0023
23,GGCTTTGGGT,0.991 ± 0.014
24,GGCTTTGGTC,1.018 ± 0.0099
25,GGCTTTGTGG,0.992 ± 0.02

row,Sequence,switch fluorescence ratio
1,GGCTTTTTTG,0.9954 ± 0.0081
2,GGGAAAAGGG,0.998 ± 0.035
3,GGGAAAATGT,1.02 ± 0.038
4,GGGAAACCGG,1.06 ± 0.018
5,GGGAAACTAA,1.01 ± 0.031
6,GGGAAAGCG,1.04 ± 0.036
7,GGGAAAGGTT,1.01 ± 0.026
8,GGGAAATAGC,1.06 ± 0.036
9,GGGAAATTGC,1.04 ± 0.074
10,GGGAAGAACT,1.06 ± 0.014
11,GGGAAGGGAG,0.983 ± 0.028
12,GGGAAGGGGA,1.04 ± 0.12
13,GGGAAGGGGG,1 ± 0.034
14,GGGAAGTGTG,0.979 ± 0.024
15,GGGAAGTTGG,0.986 ± 0.013
16,GGGAATACAT,1.01 ± 0.028
17,GGGAATCAAG,0.9862 ± 0.0097
18,GGGAATCGGT,0.978 ± 0.058
19,GGGAATCTGC,1.01 ± 0.026
20,GGGAATGGAT,1.01 ± 0.029
21,GGGAATGGGG,0.992 ± 0.044
22,GGGAATGGTG,1.035 ± 0.0095
23,GGGAATGTT,0.992 ± 0.022
24,GGGAATGTTC,1.01 ± 0.014
25,GGGAATTACC,0.986 ± 0.024
